Measured values as given in US20260116983A1 (University of California, published 2026).

T1: cynomolgus uPAR (recombinant) (cynomolgus monkey, UniProt Q9GK78 23-303, limits assumed)
T1 construct: also called cyno uPAR; AF647-cyno uPAR
T1 sequence (looked up): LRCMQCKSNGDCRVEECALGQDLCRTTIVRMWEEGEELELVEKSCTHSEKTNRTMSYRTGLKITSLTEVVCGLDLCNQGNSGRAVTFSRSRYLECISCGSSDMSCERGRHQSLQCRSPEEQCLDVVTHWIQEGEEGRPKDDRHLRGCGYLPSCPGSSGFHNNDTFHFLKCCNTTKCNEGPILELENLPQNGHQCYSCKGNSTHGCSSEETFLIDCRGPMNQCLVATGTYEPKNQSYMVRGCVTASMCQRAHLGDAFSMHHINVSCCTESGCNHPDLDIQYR

B1: 11857 HC1 + LC1 (humanized) (antibody, V domains shown)
VH: EVQLVQSGAEVKKPGATVKISCKVSGYTFTDYYMNWVQQAPGKSLEWMGNINPNNGGTDYNQKFQGRVTITADKSTSTAYMELSSLRSEDTAVYYCARSYGSRFPYWGLGTLVTVSS
VL: DIQMTQSPSSLSASVGDRVTITCRASQDITNYLSWYQQKPGGTVKLLLYYTAVLQSGFPSRFSGSGSGADYTLTISSLQPEDFATYYCQQGHTLPWTFGGGTKVEIK
notes: detected with anti-human Fc antibody
B2: 11857 HC2 + LC1 (humanized) (antibody, V domains shown)
VH: EVQLVQSGAEVKKPGASVKVSCKASGYTFTDYYMNWVRQAPGKSLEWMGNINPNNGGTDYSQKFQGRVTITVDTSASTAYMELSSLRSEDTAVYYCARSYGSRFPYWGLGTLVTVSS
VL: DIQMTQSPSSLSASVGDRVTITCRASQDITNYLSWYQQKPGGTVKLLLYYTAVLQSGFPSRFSGSGSGADYTLTISSLQPEDFATYYCQQGHTLPWTFGGGTKVEIK
notes: as for B1
B3: 11857 HC1 + LC2 (humanized) (antibody, V domains shown)
VH: EVQLVQSGAEVKKPGATVKISCKVSGYTFTDYYMNWVQQAPGKSLEWMGNINPNNGGTDYNQKFQGRVTITADKSTSTAYMELSSLRSEDTAVYYCARSYGSRFPYWGLGTLVTVSS
VL: DIQMTQSPSSLSASVGDRVTITCRASQDITNYLSWYQQKPGGTVKLLIFYTAVLQSGFPSRFSGSGSGADFTLTISSLQPEDVATYYCQQGHTLPWTFGGGTKVEIK
notes: as for B1
B4: 11857 HC1 + LC3 (humanized) (antibody, V domains shown)
VH: EVQLVQSGAEVKKPGATVKISCKVSGYTFTDYYMNWVQQAPGKSLEWMGNINPNNGGTDYNQKFQGRVTITADKSTSTAYMELSSLRSEDTAVYYCARSYGSRFPYWGLGTLVTVSS
VL: DIQMTQSPSSLSASVGDRVTITCRASQDITNYLSWFQQKPGGTVKLLIYYTAVLQSGFPSRFSGSGSGADFTLTISSLQPEDFATYYCQQGHTLPWTFGGGTKVEIK
notes: as for B1
B5: 11857 HC3 + LC1 (humanized) (antibody, V domains shown)
VH: EVQLVQSGAEVKKPGASVKVSCKASGYTFTDYYMNWVRQAPGKSLEWMGNINPNNGGTDYNQKFQGRVTLTVDTSISTAYMELSRLRSDDTVVYYCARSYGSRFPYWGLGTLVTVSS
VL: DIQMTQSPSSLSASVGDRVTITCRASQDITNYLSWYQQKPGGTVKLLLYYTAVLQSGFPSRFSGSGSGADYTLTISSLQPEDFATYYCQQGHTLPWTFGGGTKVEIK
notes: as for B1
B6: 11857 HC2 + LC2 (humanized) (antibody, V domains shown)
VH: EVQLVQSGAEVKKPGASVKVSCKASGYTFTDYYMNWVRQAPGKSLEWMGNINPNNGGTDYSQKFQGRVTITVDTSASTAYMELSSLRSEDTAVYYCARSYGSRFPYWGLGTLVTVSS
VL: DIQMTQSPSSLSASVGDRVTITCRASQDITNYLSWYQQKPGGTVKLLIFYTAVLQSGFPSRFSGSGSGADFTLTISSLQPEDVATYYCQQGHTLPWTFGGGTKVEIK
notes: as for B1
B7: 11857 HC3 + LC2 (humanized) (antibody, V domains shown)
VH: EVQLVQSGAEVKKPGASVKVSCKASGYTFTDYYMNWVRQAPGKSLEWMGNINPNNGGTDYNQKFQGRVTLTVDTSISTAYMELSRLRSDDTVVYYCARSYGSRFPYWGLGTLVTVSS
VL: DIQMTQSPSSLSASVGDRVTITCRASQDITNYLSWYQQKPGGTVKLLIFYTAVLQSGFPSRFSGSGSGADFTLTISSLQPEDVATYYCQQGHTLPWTFGGGTKVEIK
B8: 3159 HC1 + LC3 (humanized) (antibody, V domains shown)
VH: QVTLRESGPALVKPTQTLTLTCTLSGFSLSTSGMGVSWIRQPPGKALEWLAHIYWDDDKRYSTSLKTRLTISKDASKDQVVLTMTNMDTVDTATYYCGRRVRNYFSGTSYWYFDVWGTGTLVTVSS
VL: DIVMTQSPLSLPVTPGEPASISCRSSQNILHRTGNTYLDWYLQKPGQSPQLLIYKVSNRFSGVPDRFSGSGSGTDFTLKISRVEAEDVGVYYCFQGSYVPFTFGQGTKLEIK
notes: as for B1
B9: 3159 HC2 + LC2 (humanized) (antibody, V domains shown)
VH: QVTLKESGPVLVKPTETLTLTCTVSGFSLSTSGMGVSWIRQPPGKGLEWLAHIYWDDDKRYSPSLKSRLTISKDASKDQVVLTMTNMDTVDTATYYCGRRVRNYFSGTSYWYFDVWGTGTLVTVSS
VL: DVVMTQSPLSLPVTLGQPASISCRSSQNILHRTGNTYLEWFQQRPGQSPRLLIYKVSNRFSGVPDRFSGSGSGTDFTLKISRVEAEDVGVYYCFQGSYVPFTFGQGTKLEIK
notes: as for B1
B10: 3159 HC2 + LC1 (humanized) (antibody, V domains shown)
VH: QVTLKESGPVLVKPTETLTLTCTVSGFSLSTSGMGVSWIRQPPGKGLEWLAHIYWDDDKRYSPSLKSRLTISKDASKDQVVLTMTNMDTVDTATYYCGRRVRNYFSGTSYWYFDVWGTGTLVTVSS
VL: DIVMTQTPLSLSVTPGQPASISCKSSQNILHRTGNTYLEWYLQKPGQPPQLLIYKVSNRFSGVPDRFSGSGSGTDFTLKISRVEAEDVGVYYCFQGSYVPFTFGQGTKLEIK
notes: as for B1
B11: 3159 HC1 + LC1 (humanized) (antibody, V domains shown)
VH: QVTLRESGPALVKPTQTLTLTCTLSGFSLSTSGMGVSWIRQPPGKALEWLAHIYWDDDKRYSTSLKTRLTISKDASKDQVVLTMTNMDTVDTATYYCGRRVRNYFSGTSYWYFDVWGTGTLVTVSS
VL: DIVMTQTPLSLSVTPGQPASISCKSSQNILHRTGNTYLEWYLQKPGQPPQLLIYKVSNRFSGVPDRFSGSGSGTDFTLKISRVEAEDVGVYYCFQGSYVPFTFGQGTKLEIK
notes: as for B1
B12: 3159 HC2 + LC3 (humanized) (antibody, V domains shown)
VH: QVTLKESGPVLVKPTETLTLTCTVSGFSLSTSGMGVSWIRQPPGKGLEWLAHIYWDDDKRYSPSLKSRLTISKDASKDQVVLTMTNMDTVDTATYYCGRRVRNYFSGTSYWYFDVWGTGTLVTVSS
VL: DIVMTQSPLSLPVTPGEPASISCRSSQNILHRTGNTYLDWYLQKPGQSPQLLIYKVSNRFSGVPDRFSGSGSGTDFTLKISRVEAEDVGVYYCFQGSYVPFTFGQGTKLEIK
notes: as for B1
B13: 3159 HC1 + LC2 (humanized) (antibody, V domains shown)
VH: QVTLRESGPALVKPTQTLTLTCTLSGFSLSTSGMGVSWIRQPPGKALEWLAHIYWDDDKRYSTSLKTRLTISKDASKDQVVLTMTNMDTVDTATYYCGRRVRNYFSGTSYWYFDVWGTGTLVTVSS
VL: DVVMTQSPLSLPVTLGQPASISCRSSQNILHRTGNTYLEWFQQRPGQSPRLLIYKVSNRFSGVPDRFSGSGSGTDFTLKISRVEAEDVGVYYCFQGSYVPFTFGQGTKLEIK
notes: as for B1
B14: 3159 HC3 + LC3 (humanized) (antibody, V domains shown)
VH: QITLKESGPTLVKPTQTLTLTCTLSGFSLSTSGMGVSWIRQPPGKALEWLAHIYWDDDKRYNPSLKSRLTITKDASKDQVVLTMTNMDTVDTATYYCGRRVRNYFSGTSYWYFDVWGTGTLVTVSS
VL: DIVMTQSPLSLPVTPGEPASISCRSSQNILHRTGNTYLDWYLQKPGQSPQLLIYKVSNRFSGVPDRFSGSGSGTDFTLKISRVEAEDVGVYYCFQGSYVPFTFGQGTKLEIK
notes: as for B1

Assays:
[1] = molecular target: T2, human uPAR displayed on the surface of MDA-MB-231 cells (human, UniProt Q03405 23-305); test: flow cytometry on MDA-MB-231 cells
T2 construct: whole, on cells; also called cell-surface uPAR; cellular uPAR
T2 sequence (Q03405 23-305): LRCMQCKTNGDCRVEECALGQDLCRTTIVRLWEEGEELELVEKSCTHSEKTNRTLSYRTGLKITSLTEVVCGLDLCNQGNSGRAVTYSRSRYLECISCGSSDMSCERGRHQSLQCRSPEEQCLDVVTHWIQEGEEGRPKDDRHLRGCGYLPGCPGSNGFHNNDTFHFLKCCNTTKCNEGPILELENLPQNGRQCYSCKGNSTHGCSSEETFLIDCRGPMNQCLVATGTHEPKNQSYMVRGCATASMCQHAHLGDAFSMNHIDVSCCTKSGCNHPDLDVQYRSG

[2] = molecular target: T1, cynomolgus uPAR (recombinant); test: BLI (Octet HTX)
Protocol: (§1) Kinetic constant ranges for Octet HTX were between 1 mM to 10 pM.

[3] = molecular target: T3, human uPAR (recombinant protein used in ELISA and BLI) (human, UniProt Q03405 23-305, limits assumed); test: BLI (Octet HTX)
T3 construct: Whole entry named; also called biotinylated human uPAR
T3 sequence (Q03405 23-305 limits assumed): as the sequence (Q03405 23-305) above
Protocol: as §1

Binder	EC50 [1]	Kd [2]	Kd [3]
B1	0.695 µg/mL	69.7 nM	127 nM
B2	0.432 µg/mL	307 nM	125 nM
B3	0.223 µg/mL	32.4 nM	53.4 nM
B4	1.21 µg/mL	–	–
B5	0.304 µg/mL	83.9 nM	147 nM
B6	0.212 µg/mL	59.5 nM	45.7 nM
B7	–	59.6 nM	75.6 nM
B8	0.27 µg/mL	162 nM	5.58 nM
B9	0.32 µg/mL	404 nM	< 0.01 nM
B10	0.379 µg/mL	41.1 nM	< 0.01 nM
B11	0.187 µg/mL	556 nM	6.79 nM
B12	0.205 µg/mL	255 nM	< 0.01 nM
B13	0.518 µg/mL	5870 nM	< 0.01 nM
B14	0.185 µg/mL	58.5 nM	7.39 nM
